# Results taken from patent US20100144645A1, “COMPOSITIONS AND METHODS FOR ENHANCING […] POTENCY OF […]-COMPOUNDS, A[…] ADVERSE SIDE EFFECTS, AND […] ABUSE” (SHIRE LLC, priority 2006, published 2010).
# Residues, ends and D or L forms follow the SMILES beside them. *: point of attachment. X1 = COc1ccc2c3c1OC1C(O*)=CCC4[C@@H](C2)N(C)CC[C@]314
# Tests used:
# [1] = Oral bioavailability of hydrocodone conjugates (plasma hydrocodone plus hydromorphone); details: for bioavailabiltty (% HC) oral AUC / bioavailabiltty (% HC) oral Cmax: rats, relative to hydrocodone; for Oral:IN Index AUC: ratio of oral to IN AUC (% HC); for Oral:IN Index Cmax: ratio of oral to IN Cmax (% HC)
# [2] = Intranasal bioavailability of hydrocodone conjugates; details: rats, relative to hydrocodone
# [3] = stability 90 C., 20 min (V, BP, TW, BS) of hydrocodone conjugates; details: for stability 90 C., 20 min BP: BP (abbreviation not defined); for stability 90 C., 20 min BS: BS (abbreviation not defined); for stability 90 C., 20 min TW: TW (abbreviation not defined); for stability 90 C., 20 min V: V (abbreviation not defined)
# [4] = Oral bioavailability of oxycodone conjugates (plasma oxycodone plus oxymorphone); details: rats
# [5] = n = 4 animals, analysis by LC-MS, OXY = 100
Compound,bioavailabiltty (% HC) oral AUC [1] [% HC],bioavailabiltty (% HC) oral Cmax [1] [% HC],Oral:IN Index AUC [1],Oral:IN Index Cmax [1],bioavailabiltty (% HC) IN AUC [2] [% HC],bioavailabiltty (% HC) IN Cmax [2] [% HC],"stability 90 C., 20 min BP [3]","stability 90 C., 20 min BS [3]","stability 90 C., 20 min TW [3]","stability 90 C., 20 min V [3]","Oral (% AUC) [4, 5] [% AUC]","Oral (% AUC) ([4]; n = 4, LC-MS, Dosed at 40% higher levels than calculated)"
"COc1ccc2c3c1OC1C(OC(=O)[C@H](Cc4ccccc4)NC(=O)[C@H](Cc4ccccc4)NC(=O)[C@H](Cc4ccccc4)NC(=O)[C@H](CCC(=O)O)NC(=O)[C@@H](N)CCC(=O)O)=CCC4[C@@H](C2)N(C)CC[C@]314 (some centres unmarked) [Glu2-Phe3-HC, Glu2-Phe3-Hydrocodone] (H-EEFFF-X1)",83,89,3.07,1.89,27,47,100,84,57,3,–,–
COc1ccc2c3c1OC1C(OC(=O)[C@H](CC(C)C)NC(=O)[C@H](CCCCN)NC(=O)[C@@H](N)CCCCN)=CCC4(O)[C@@H](C2)N(C)CC[C@]314 (stereo partly drawn) [Lys-Lys-Leu-OC],–,–,–,–,–,–,–,–,–,–,46,–
COc1ccc2c3c1OC1C(OC(=O)[C@@H](NC(=O)CNC(=O)CN)C(C)C)=CCC4(O)[C@@H](C2)N(C)CC[C@]314 (stereo partly drawn) [Gly-Gly-Val-OC],–,–,–,–,–,–,–,–,–,–,123,–
"CC[C@H](C)[C@H](NC(=O)CNC(=O)CNC(=O)[C@H](CCC(=O)O)NC(=O)[C@@H](N)CCC(=O)O)C(=O)OC1=CCC2[C@H]3Cc4ccc(OC)c5c4[C@@]2(CCN3C)C1O5 (some centres unmarked) [Glu2-Gly2-Ile-HC, Glu2-Gly2-Ile-Hydrocodone] (H-EEGGI-X1)",81,77,–,–,50,56,99,99,23,0,–,–
CC[C@H](C)[C@H](NC(=O)[C@H](CCCCN)NC(=O)[C@@H](N)CCCCN)C(=O)OC1=CCC2[C@H]3Cc4ccc(OC)c5c4[C@@]2(CCN3C)C1O5 (stereo partly drawn) [Lys-Lys-Ile-HC],80,76,1.18,0.81,68,94,100,97,96,0,–,–
CC[C@H](C)[C@H](NC(=O)[C@H](Cc1ccccc1)NC(=O)[C@H](Cc1ccccc1)NC(=O)[C@H](Cc1ccc(O)cc1)NC(=O)[C@@H](N)Cc1ccc(O)cc1)C(=O)OC1=CCC2[C@H]3Cc4ccc(OC)c5c4[C@@]2(CCN3C)C1O5 (some centres unmarked) [Tyr2-Phe2-Ile-HC] (H-YYFFI-X1),113,63,4.35,1.85,26,34,5,50,5,0,–,–
CC[C@H](C)[C@H](NC(=O)CNC(=O)CN)C(=O)OC1=CCC2(O)[C@H]3Cc4ccc(OC)c5c4[C@@]2(CCN3C)C1O5 (stereo partly drawn) [Gly-Gly-Ile-OC],–,–,–,–,–,–,–,–,–,–,–,224
CC[C@H](C)[C@H](NC(=O)[C@H](CCC(=O)O)NC(=O)[C@H](CCC(=O)O)NC(=O)CNC(=O)CN)C(=O)OC1=CCC2[C@H]3Cc4ccc(OC)c5c4[C@@]2(CCN3C)C1O5 (some centres unmarked) [Gly2-Glu2-Ile-HC] (H-GGEEI-X1),96,119,1.45,1.55,66,77,74,100,11,0,–,–
COc1ccc2c3c1OC1C(OC(=O)[C@H](Cc4ccccc4)NC(=O)CNC(=O)CNC(=O)[C@H](CCC(=O)O)NC(=O)[C@@H](N)CCC(=O)O)=CCC4[C@@H](C2)N(C)CC[C@]314 (some centres unmarked) [Glu2-Gly2-Phe-HC] (H-EEGGF-X1),110,112,1.24,1.15,89,97,100,100,100,0,–,–
CC[C@H](C)[C@H](NC(=O)[C@@H]1CCCN1C(=O)[C@@H]1CCCN1C(=O)CNC(=O)CN)C(=O)OC1=CCC2[C@H]3Cc4ccc(OC)c5c4[C@@]2(CCN3C)C1O5 (some centres unmarked) [Gly2-Pro2-Ile-HC] (H-GGPPI-X1),94,121,2.14,2.16,44,56,73,100,70,0,–,–
CC[C@H](C)[C@H](NC(=O)[C@H](Cc1ccc(O)cc1)NC(=O)[C@@H](N)Cc1ccc(O)cc1)C(=O)OC1=CCC2[C@H]3Cc4ccc(OC)c5c4[C@@]2(CCN3C)C1O5 (stereo partly drawn) [Tyr-Tyr-Ile-HC],145,234,7.25,6.88,20,34,66,100,23,0,–,–
CC[C@H](C)[C@H](NC(=O)[C@H](CC(C)C)NC(=O)[C@@H]1CCCN1)C(=O)OC1=CCC2[C@H]3Cc4ccc(OC)c5c4[C@@]2(CCN3C)C1O5 (stereo partly drawn) [Pro-Leu-Ile-HC],141,172,–,–,87,101,100,100,100,0,–,–
COc1ccc2c3c1OC1C(OC(=O)[C@H](CC(C)C)NC(=O)[C@@H]4CCCN4C(=O)[C@@H]4CCCN4)=CCC4[C@@H](C2)N(C)CC[C@]314 (stereo partly drawn) [Pro-Pro-Leu-HC],94,108,2.04,2.25,46,48,100,100,100,2,–,–
CC[C@H](C)[C@H](NC(=O)[C@H](CCC(=O)O)NC(=O)[C@@H](N)CCC(=O)O)C(=O)OC1=CCC2[C@H]3Cc4ccc(OC)c5c4[C@@]2(CCN3C)C1O5 (stereo partly drawn) [Glu-Glu-Ile-HC],83,112,1.60,1.90,52,59,94,100,26,0,–,–
CC[C@H](C)[C@H](NC(=O)[C@H](CC(=O)O)NC(=O)[C@H](CC(=O)O)NC(=O)[C@H](CCCCN)NC(=O)[C@@H](N)CCCCN)C(=O)OC1=CCC2[C@H]3Cc4ccc(OC)c5c4[C@@]2(CCN3C)C1O5 (some centres unmarked) [Lys2-Asp2-Ile-HC] (H-KKDDI-X1),90,121,2.31,2.16,39,56,64,100,0,0,–,–
COc1ccc2c3c1OC1C(OC(=O)[C@H](Cc4ccccc4)NC(=O)[C@@H]4CCCN4C(=O)[C@@H](N)CC(C)C)=CCC4[C@@H](C2)N(C)CC[C@]314 (stereo partly drawn) [Leu-Pro-Phe-HC],106,125,1.28,1.24,83,101,100,100,100,2,–,–
CC[C@H](C)[C@H](NC(=O)[C@H](Cc1ccccc1)NC(=O)[C@H](Cc1ccccc1)NC(=O)[C@H](CCC(=O)O)NC(=O)[C@@H](N)CCC(=O)O)C(=O)OC1=CCC2[C@H]3Cc4ccc(OC)c5c4[C@@]2(CCN3C)C1O5 (some centres unmarked) [Glu2-Phe2-Ile-HC] (H-EEFFI-X1),96,129,1.41,1.70,68,76,100,100,33,0,–,–
CC[C@H](C)[C@H](NC(=O)[C@@H]1CCCN1C(=O)[C@@H]1CCCN1C(=O)[C@H](CCCCN)NC(=O)[C@@H](N)CCCCN)C(=O)OC1=CCC2[C@H]3Cc4ccc(OC)c5c4[C@@]2(CCN3C)C1O5 (some centres unmarked) [Lys2-Pro2-Ile-HC] (H-KKPPI-X1),80,76,1.18,0.81,68,94,72,100,66,0,–,–
